Laboratory results: PMC7440162 (Cell, 2020)

T1: TIE1 ECD-Fc (human, UniProt P35590 22-759, biotin on the AviTag (as SPR ligand))
T1 sequence: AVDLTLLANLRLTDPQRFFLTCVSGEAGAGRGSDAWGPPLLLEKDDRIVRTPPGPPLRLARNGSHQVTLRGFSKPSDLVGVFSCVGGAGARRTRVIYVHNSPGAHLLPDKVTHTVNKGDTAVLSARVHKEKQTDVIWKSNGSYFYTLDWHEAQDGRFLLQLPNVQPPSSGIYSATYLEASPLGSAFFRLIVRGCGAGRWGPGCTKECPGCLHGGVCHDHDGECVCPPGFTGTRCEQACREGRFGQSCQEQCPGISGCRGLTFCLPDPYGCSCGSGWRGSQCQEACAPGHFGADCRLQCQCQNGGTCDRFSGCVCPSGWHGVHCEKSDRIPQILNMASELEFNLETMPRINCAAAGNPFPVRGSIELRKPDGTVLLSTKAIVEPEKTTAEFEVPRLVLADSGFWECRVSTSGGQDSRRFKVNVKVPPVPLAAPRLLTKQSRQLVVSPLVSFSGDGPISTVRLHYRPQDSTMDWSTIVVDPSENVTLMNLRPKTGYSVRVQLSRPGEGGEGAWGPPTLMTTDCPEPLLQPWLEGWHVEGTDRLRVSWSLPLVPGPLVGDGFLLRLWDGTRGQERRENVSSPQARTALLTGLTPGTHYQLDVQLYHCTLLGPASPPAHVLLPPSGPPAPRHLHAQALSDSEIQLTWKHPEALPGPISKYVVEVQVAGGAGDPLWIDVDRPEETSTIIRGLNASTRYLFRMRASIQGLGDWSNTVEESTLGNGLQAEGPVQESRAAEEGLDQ

T2: PTPRS ECD-Fc (human, UniProt Q13332 30-1282)
T2 sequence: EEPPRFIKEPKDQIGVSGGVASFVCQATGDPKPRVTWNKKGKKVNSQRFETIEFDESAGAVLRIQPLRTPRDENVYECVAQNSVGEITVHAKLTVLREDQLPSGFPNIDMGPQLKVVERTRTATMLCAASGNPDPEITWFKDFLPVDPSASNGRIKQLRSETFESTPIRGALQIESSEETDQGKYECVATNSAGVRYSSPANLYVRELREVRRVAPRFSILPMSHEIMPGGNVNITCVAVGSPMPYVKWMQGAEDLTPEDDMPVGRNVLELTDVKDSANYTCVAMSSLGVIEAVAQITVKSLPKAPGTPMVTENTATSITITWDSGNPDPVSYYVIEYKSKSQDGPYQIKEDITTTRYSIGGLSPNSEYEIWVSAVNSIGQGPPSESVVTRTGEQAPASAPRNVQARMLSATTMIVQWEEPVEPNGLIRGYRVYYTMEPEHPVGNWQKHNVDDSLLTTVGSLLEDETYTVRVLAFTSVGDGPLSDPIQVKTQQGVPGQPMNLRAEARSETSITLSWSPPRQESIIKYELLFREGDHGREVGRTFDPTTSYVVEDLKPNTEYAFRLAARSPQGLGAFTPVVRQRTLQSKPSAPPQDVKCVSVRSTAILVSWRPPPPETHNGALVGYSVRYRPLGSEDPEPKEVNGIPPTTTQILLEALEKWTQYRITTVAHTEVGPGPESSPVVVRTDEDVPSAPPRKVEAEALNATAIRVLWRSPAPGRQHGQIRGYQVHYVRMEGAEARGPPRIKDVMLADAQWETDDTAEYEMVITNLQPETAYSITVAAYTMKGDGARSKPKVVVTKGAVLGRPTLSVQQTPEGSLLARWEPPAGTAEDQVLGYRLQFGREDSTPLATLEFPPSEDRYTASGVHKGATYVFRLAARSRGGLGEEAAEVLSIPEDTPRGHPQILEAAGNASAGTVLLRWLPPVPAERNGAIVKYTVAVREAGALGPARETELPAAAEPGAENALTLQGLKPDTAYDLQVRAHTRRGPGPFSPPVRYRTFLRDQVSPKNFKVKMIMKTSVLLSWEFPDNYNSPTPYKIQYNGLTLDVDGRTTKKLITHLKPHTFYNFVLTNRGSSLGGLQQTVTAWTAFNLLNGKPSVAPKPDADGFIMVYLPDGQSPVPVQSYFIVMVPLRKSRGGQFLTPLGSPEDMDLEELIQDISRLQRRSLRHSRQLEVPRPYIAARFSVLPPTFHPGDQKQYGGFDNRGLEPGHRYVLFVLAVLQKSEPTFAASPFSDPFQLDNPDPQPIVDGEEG

T3: FGFR3 ECD-Fc (human, UniProt P22607 23-375)
T3 sequence: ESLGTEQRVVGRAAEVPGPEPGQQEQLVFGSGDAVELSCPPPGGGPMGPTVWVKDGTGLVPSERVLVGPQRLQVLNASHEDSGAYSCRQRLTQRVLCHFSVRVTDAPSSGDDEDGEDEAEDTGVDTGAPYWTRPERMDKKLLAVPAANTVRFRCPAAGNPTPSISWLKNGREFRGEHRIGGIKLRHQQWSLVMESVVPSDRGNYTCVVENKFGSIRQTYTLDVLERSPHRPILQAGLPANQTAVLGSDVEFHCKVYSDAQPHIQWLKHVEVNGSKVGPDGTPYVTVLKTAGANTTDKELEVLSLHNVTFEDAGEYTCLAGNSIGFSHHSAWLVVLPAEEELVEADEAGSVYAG

T4: PRTG ECD-Fc (human, UniProt Q2VWP7 36-949)
T4 sequence: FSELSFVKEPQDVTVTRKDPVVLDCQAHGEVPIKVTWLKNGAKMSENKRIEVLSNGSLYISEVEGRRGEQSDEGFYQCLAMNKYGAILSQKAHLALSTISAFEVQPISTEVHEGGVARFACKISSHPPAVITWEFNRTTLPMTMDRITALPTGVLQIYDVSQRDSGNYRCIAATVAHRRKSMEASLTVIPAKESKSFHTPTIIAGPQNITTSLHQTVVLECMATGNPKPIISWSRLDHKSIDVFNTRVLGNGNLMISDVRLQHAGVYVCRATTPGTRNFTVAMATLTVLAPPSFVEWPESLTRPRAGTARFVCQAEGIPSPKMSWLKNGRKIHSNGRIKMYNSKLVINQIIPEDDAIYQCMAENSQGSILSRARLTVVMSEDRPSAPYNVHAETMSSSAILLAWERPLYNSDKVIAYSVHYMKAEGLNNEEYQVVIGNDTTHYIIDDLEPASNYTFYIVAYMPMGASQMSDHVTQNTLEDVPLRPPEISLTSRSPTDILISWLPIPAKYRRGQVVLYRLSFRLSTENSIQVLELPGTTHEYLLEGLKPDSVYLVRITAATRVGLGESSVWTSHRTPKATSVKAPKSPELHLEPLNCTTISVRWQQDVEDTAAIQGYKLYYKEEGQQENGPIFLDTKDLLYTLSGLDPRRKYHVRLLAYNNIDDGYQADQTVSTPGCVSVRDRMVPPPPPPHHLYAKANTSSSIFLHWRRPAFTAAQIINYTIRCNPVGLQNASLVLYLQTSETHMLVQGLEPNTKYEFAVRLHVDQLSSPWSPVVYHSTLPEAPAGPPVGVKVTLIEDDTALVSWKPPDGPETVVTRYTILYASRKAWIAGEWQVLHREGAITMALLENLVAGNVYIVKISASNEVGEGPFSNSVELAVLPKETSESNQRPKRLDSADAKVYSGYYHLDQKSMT

T5: human ISLR2 ECD-Fc (human, UniProt Q6UXK2 19-589, biotin on the AviTag (as SPR ligand))
T5 sequence: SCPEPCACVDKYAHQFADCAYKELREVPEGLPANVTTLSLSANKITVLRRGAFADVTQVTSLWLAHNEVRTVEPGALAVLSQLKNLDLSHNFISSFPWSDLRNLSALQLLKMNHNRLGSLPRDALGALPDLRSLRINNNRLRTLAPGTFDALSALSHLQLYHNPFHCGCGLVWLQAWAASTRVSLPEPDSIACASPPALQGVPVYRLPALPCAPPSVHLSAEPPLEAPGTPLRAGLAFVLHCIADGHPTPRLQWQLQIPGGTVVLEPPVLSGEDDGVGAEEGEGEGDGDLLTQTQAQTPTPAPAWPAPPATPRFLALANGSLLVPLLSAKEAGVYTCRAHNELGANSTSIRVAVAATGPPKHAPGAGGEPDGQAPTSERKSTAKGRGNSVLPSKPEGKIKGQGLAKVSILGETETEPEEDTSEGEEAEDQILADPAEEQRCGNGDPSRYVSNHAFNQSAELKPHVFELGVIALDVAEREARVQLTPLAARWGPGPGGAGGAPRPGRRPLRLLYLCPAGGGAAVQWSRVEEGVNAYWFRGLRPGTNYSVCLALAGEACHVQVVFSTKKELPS

T6: IL-6Rα ECD-Fc (human, UniProt P08887 20-365, biotin on the AviTag (as SPR ligand))
T6 sequence: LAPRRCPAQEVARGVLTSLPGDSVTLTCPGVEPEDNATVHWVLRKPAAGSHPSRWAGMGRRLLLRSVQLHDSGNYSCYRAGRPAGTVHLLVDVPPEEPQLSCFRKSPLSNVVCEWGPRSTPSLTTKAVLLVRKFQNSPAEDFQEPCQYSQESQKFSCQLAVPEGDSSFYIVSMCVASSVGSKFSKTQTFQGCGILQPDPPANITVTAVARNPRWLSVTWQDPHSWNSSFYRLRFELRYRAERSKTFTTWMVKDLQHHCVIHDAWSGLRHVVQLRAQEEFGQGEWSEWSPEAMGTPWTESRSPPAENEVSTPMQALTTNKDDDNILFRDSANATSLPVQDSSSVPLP


Experiments:
Experiment in all cases: SPR
TIE1 ECD-Fc = biological target: T1, TIE1 ECD-Fc
TIE2 ECD-Fc = TIE2 ECD-Fc (human, UniProt Q02763 23-748, biotin on the AviTag (as SPR ligand))
PTPRS ECD-Fc = biological target: T2, PTPRS ECD-Fc
FGFR3 ECD-Fc = biological target: T3, FGFR3 ECD-Fc
PRTG ECD-Fc = biological target: T4, PRTG ECD-Fc
human ISLR2 ECD-Fc = biological target: T5, human ISLR2 ECD-Fc
IL-6Rα ECD-Fc = biological target: T6, IL-6Rα ECD-Fc

TIE2 ECD-Fc, sequence (Q02763 23-748): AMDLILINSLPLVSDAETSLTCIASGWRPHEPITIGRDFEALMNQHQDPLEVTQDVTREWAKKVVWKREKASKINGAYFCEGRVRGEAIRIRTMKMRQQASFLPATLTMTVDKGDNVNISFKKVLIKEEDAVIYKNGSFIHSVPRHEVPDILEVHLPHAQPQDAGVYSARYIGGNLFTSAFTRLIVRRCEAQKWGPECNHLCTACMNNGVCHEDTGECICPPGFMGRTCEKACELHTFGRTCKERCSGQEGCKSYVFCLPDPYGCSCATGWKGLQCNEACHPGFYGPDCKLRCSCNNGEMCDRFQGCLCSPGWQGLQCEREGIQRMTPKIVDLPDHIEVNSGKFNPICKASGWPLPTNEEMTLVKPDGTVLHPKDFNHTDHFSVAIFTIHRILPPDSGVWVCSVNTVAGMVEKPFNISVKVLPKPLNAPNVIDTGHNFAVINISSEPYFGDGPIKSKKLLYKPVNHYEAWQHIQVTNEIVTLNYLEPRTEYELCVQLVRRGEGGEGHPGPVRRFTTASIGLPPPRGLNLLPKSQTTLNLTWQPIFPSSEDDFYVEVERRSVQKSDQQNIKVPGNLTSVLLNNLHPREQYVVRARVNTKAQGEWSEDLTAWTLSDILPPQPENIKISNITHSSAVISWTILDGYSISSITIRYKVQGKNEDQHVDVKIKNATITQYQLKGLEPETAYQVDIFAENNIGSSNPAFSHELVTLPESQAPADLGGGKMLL

Binder | binding result (PRTG ECD-Fc) | binding result (human ISLR2 ECD-Fc) | binding result (IL-6Rα ECD-Fc) | further results
TrkA ECD-Fc (Fc fusion, biotin on the AviTag (in streptavidin-Alexa 647 tetramers)) AAPCPDACCPHGSSGLRCTRDGALDSLHHLPGAENLTELYIENQQHLQHLELRDLRGLGELRNLTIVKSGLRFVAPDAFHFTPRLSRLNLSFNALESLSWKTVQGLSLQELVLSGNPLHCSCALRWLQRWEEEGLGGVPEQKLQCHGQGPLAHMPNASCGVPTLKVQVPNASVDVGDDVLLRCQVEGRGLEQAGWILTELEQSATVMKSGGLPSLGLTLANVTSDLNRKNVTCWAENDVGRAEVSVQVNVSFPASVQLHTAVEMHHWCIPFSVDGQPAPSLRWLFNGSVLNETSFIFTEFLEPAANETVRHGCLRLNQPTHVNNGNYTLLAANPFGQASASIMAAFMDNPFEFNPEDPIPVSFSPVDTNSTSGDPVEKKDETPFGVSVAVG | – | – | – | binding result (TIE1 ECD-Fc): binds
Recombinant Human Angiopoietin-1 Protein (ligand) HIGCSNQRRSPENSGRRYNRIQHGQCAYTFILPEHDGNCRESTTDQYNTNALQRDAPHVEPDFSSQKLQHLEHVMENYTQWLQKLENYIVENMKSEMAQIQQNAVQNHTATMLEIGTSLLSQTAEQTRKLTDVETQVLNQTSRLEIQLLENSLSTYKLEKQLLQQTNEILKIHEKNSLLEHKILEMEGKHKEELDTLKEEKENLQGLVTRQTYIIQELEKQLNRATTNNSVLQKQQLELMDTVHNLVNLCTKEGVLLKGGKREEEKPFRDCADVYQAGFNKSGIYTIYINNMPEPKKVFCNMDVNGGGWTVIQHREDGSLDFQRGWKEYKMGFGNPSGEYWLGNEFIFAITSQRQYMLRIELMDWEGNRAYSQYDRFHIGNEKQNYRLYLKGHTGTAGKQSSLILHGADFSTKDADNDNCMCKCALMLTGGWWFDACGPSNLNGMFYTAGQNHGKLNGIKWHYFKGPSYSLRSTTMMIRPLDF | – | – | – | binding result (TIE2 ECD-Fc): binds
IL1RAPL2 ECD-Fc (Fc fusion, biotin on the AviTag (as SPR ligand)) TNLKMVSKRNSVDGCIDWSVDLKTYMALAGEPVRVKCALFYSYIRTNYSTAQSTGLRLMWYKNKGDLEEPIIFSEVRMSKEEDSIWFHSAEAQDSGFYTCVLRNSTYCMKVSMSLTVAENESGLCYNSRIRYLEKSEVTKRKEISCPDMDDFKKSDQEPDVVWYKECKPKMWRSIIIQKGNALLIQEVQEEDGGNYTCELKYEGKLVRRTTELKVTALLTDKPPKPLFPMENQPSVIDVQLGKPLNIPCKAFFGFSGESGPMIYWMKGEKFIEELAGHIREGEIRLLKEHLGEKEVELALIFDSVVEADLANYTCHVENRNGRKHASVLLRKKDLIYK | – | – | – | binding result (PTPRS ECD-Fc): binds; binding result (FGFR3 ECD-Fc): binds
IGFBPL1-Fc (Fc fusion, biotin on the AviTag (as SPR ligand)) LGIRDVGGRRPKCGPCRPEGCPAPAPCPAPGISALDECGCCARCLGAEGASCGGRAGGRCGPGLVCASQAAGAAPEGTGLCVCAQRGTVCGSDGRSYPSVCALRLRARHTPRAHPGHLHKARDGPCEFAPVVVVPPRSVHNVTGAQVGLSCEVRAVPTPVITWRKVTKSPEGTQALEELPGDHVNIAVQVRGGPSDHEATAWILINPLRKEDEGVYQCHAANMVGEAESHSTVTVLDLSKYRSFHFPAPDDRM | binds | binds | binds | –
IGFBP7-Fc (Fc fusion, biotin on the AviTag (as SPR ligand)) SSSDTCGPCEPASCPPLPPLGCLLGETRDACGCCPMCARGEGEPCGGGGAGRGYCAPGMECVKSRKRRKGKAGAAAGGPGVSGVCVCKSRYPVCGSDGTTYPSGCQLRAASQRAESRGEKAITQVSKGTCEQGPSIVTPPKDIWNVTGAQVYLSCEVIGIPTPVLIWNKVKRGHYGVQRTELLPGDRDNLAIQTRGGPEKHEVTGWVLVSPLSKEDAGEYECHASNSQGQASASAKITVVDALHEIPVKKGEGAEL | binds | binds | binds | –
